Molecular target: complete MN/CA IX protein (MN/CA IX+), from Vero cells infected with vaccinia virus carrying the complete coding region of MN/CA IX (human) (UniProt Q16790)
Test: cell-based or functional assay

Substance: monoclonal antibody M75 (MAb M75), secreted by hybridoma VU-M75, ATCC HB 11128
- cell attachment to purified MN/CA IX+ (fold dilution of ascites fluid): 1000

Source: US7910549
